From article PMC6511850 (Nucleic Acids Research, 2019) come the findings set out here.

The data set concerns the molecule itself. Briefly: SEC. In general terms: In gel filtration, larger molecules generally elute earlier.

B1: Bacillus subtilis m1A22 tRNA methyltransferase TrmK (wild type) (enzyme, UniProt P54471 1-238, looked up)
chain: MNELKLSKRLQTVAEYIPNGAVMADIGSDHAYLPCYAVLNHKASGAIAGEITDGPFLSAKRQVEKSGLNSHISVRQGDGLEVIKKGEADAITIAGMGGALIAHILEAGKDKLTGKERLILQPNIHAVHIREWLYKERYALIDEVILEEDGKCYEVLVAEAGDRDAAYDGISLSAGMLVGPFLAKEKNAVFLKKWTQELQHTQSIYEQISQAADTEQNKQKLKELADRMELLKEVIDHG
Regarding B1, the binding result is recorded as “binds”.
